Reference: the supplement of paper PMC9112550, “Optimization of the antimicrobial peptide Bac7 by deep mutational scanning” (BMC Biology, 2022)

Test system: Escherichia coli TOP10
Assay: shrunken log2 fold change of peptide-encoding DNA abundance (4.5 h post-induction vs induction); higher = less antimicrobial activity (less host growth inhibition)
Details: time post-induction: 4.5 h; library: site-saturation at positions 5, 18, 19, 20
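Note: peptides expressed intracellularly from a pBAD plasmid library in pooled LB shake-flask culture, induced with 0.3% L-arabinose, DNA abundance read by NGS, three biological replicates, DESeq2 with apeglm shrinkage.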

RRIRPRPPRLPRPRPRPLGEPRP
shrunken log2 fold change: -0.155

RRIRPRPPRLPRPRPRPLGFPRP
shrunken log2 fold change: 0.49

RRIRPRPPRLPRPRPRPLHRPRP
shrunken log2 fold change: -0.284

RRIRPRPPRLPRPRPRPLLGPRP
shrunken log2 fold change: 0.191

RRIRPRPPRLPRPRPRPLLWPRP
shrunken log2 fold change: 0.0186

RRIRPRPPRLPRPRPRPLMGPRP
shrunken log2 fold change: -0.0395

RRIRPRPPRLPRPRPRPLMHPRP
shrunken log2 fold change: -0.0913

RRIRPRPPRLPRPRPRPLMWPRP
shrunken log2 fold change: 0.432

RRIRPRPPRLPRPRPRPLPGPRP
shrunken log2 fold change: 0.02

RRIRPRPPRLPRPRPRPLPQPRP
shrunken log2 fold change: 0.286

RRIRPRPPRLPRPRPRPLRIPRP
shrunken log2 fold change: 0.0628

RRIRPRPPRLPRPRPRPLRKPRP
shrunken log2 fold change: 0.319

RRIRPRPPRLPRPRPRPLSGPRP
shrunken log2 fold change: 0.0234

RRIRPRPPRLPRPRPRPLSSPRP
shrunken log2 fold change: 0.00895

RRIRPRPPRLPRPRPRPLTAPRP
shrunken log2 fold change: 0.212

RRIRPRPPRLPRPRPRPLTHPRP
shrunken log2 fold change: -0.108

RRIRPRPPRLPRPRPRPLWYPRP
shrunken log2 fold change: -0.496

RRIRPRPPRLPRPRPRPLYGPRP
shrunken log2 fold change: 0.0853

RRIRPRPPRLPRPRPRPLYRPRP
shrunken log2 fold change: -0.181

RRIRPRPPRLPRPRPRPMALPRP
shrunken log2 fold change: -0.0509

RRIRPRPPRLPRPRPRPMDRPRP
shrunken log2 fold change: 0.247

RRIRPRPPRLPRPRPRPMDSPRP
shrunken log2 fold change: -0.0149

RRIRPRPPRLPRPRPRPMEWPRP
shrunken log2 fold change: -0.0225

RRIRPRPPRLPRPRPRPMFFPRP
shrunken log2 fold change: -0.207

RRIRPRPPRLPRPRPRPMFNPRP
shrunken log2 fold change: -0.648

RRIRPRPPRLPRPRPRPMHDPRP
shrunken log2 fold change: -0.0561

RRIRPRPPRLPRPRPRPMHEPRP
shrunken log2 fold change: 0.297

RRIRPRPPRLPRPRPRPMHHPRP
shrunken log2 fold change: -0.194

RRIRPRPPRLPRPRPRPMHNPRP
shrunken log2 fold change: -0.202

RRIRPRPPRLPRPRPRPMKAPRP
shrunken log2 fold change: 0.0531

RRIRPRPPRLPRPRPRPMLGPRP
shrunken log2 fold change: 0.252

RRIRPRPPRLPRPRPRPMLSPRP
shrunken log2 fold change: 0.0181

RRIRPRPPRLPRPRPRPMMGPRP
shrunken log2 fold change: 0.0538

RRIRPRPPRLPRPRPRPMMIPRP
shrunken log2 fold change: 0.0824

RRIRPRPPRLPRPRPRPMMNPRP
shrunken log2 fold change: 0.03

RRIRPRPPRLPRPRPRPMMTPRP
shrunken log2 fold change: -0.146

RRIRPRPPRLPRPRPRPMNPPRP
shrunken log2 fold change: 0.00824

RRIRPRPPRLPRPRPRPMNVPRP
shrunken log2 fold change: -0.0376

RRIRPRPPRLPRPRPRPMPFPRP
shrunken log2 fold change: -0.349

RRIRPRPPRLPRPRPRPMQKPRP
shrunken log2 fold change: 0.0491

RRIRPRPPRLPRPRPRPMSVPRP
shrunken log2 fold change: 0.0754

RRIRPRPPRLPRPRPRPMTGPRP
shrunken log2 fold change: -0.239

RRIRPRPPRLPRPRPRPMVMPRP
shrunken log2 fold change: -0.0504

RRIRPRPPRLPRPRPRPMWWPRP
shrunken log2 fold change: 0.189

RRIRPRPPRLPRPRPRPNACPRP
shrunken log2 fold change: 0.195

RRIRPRPPRLPRPRPRPNATPRP
shrunken log2 fold change: 0.323

RRIRPRPPRLPRPRPRPNAVPRP
shrunken log2 fold change: 0.0397

RRIRPRPPRLPRPRPRPNDFPRP
shrunken log2 fold change: -0.438

RRIRPRPPRLPRPRPRPNEWPRP
shrunken log2 fold change: -0.203

RRIRPRPPRLPRPRPRPNFLPRP
shrunken log2 fold change: 0.0421

RRIRPRPPRLPRPRPRPNGLPRP
shrunken log2 fold change: 0.015

RRIRPRPPRLPRPRPRPNGNPRP
shrunken log2 fold change: -0.144

RRIRPRPPRLPRPRPRPNGWPRP
shrunken log2 fold change: 0.296

RRIRPRPPRLPRPRPRPNHWPRP
shrunken log2 fold change: -0.0328

RRIRPRPPRLPRPRPRPNKCPRP
shrunken log2 fold change: -0.26

RRIRPRPPRLPRPRPRPNNQPRP
shrunken log2 fold change: -0.353

RRIRPRPPRLPRPRPRPNNSPRP
shrunken log2 fold change: -0.488

RRIRPRPPRLPRPRPRPNQQPRP
shrunken log2 fold change: 0.0352

RRIRPRPPRLPRPRPRPNRQPRP
shrunken log2 fold change: -0.0342

RRIRPRPPRLPRPRPRPNSNPRP
shrunken log2 fold change: -0.762

RRIRPRPPRLPRPRPRPNSYPRP
shrunken log2 fold change: -0.464

RRIRPRPPRLPRPRPRPNTIPRP
shrunken log2 fold change: -0.553

RRIRPRPPRLPRPRPRPNYDPRP
shrunken log2 fold change: -0.388

RRIRPRPPRLPRPRPRPPFVPRP
shrunken log2 fold change: 0.139

RRIRPRPPRLPRPRPRPPGFPRP
shrunken log2 fold change: 0.847

RRIRPRPPRLPRPRPRPPGHPRP
shrunken log2 fold change: 0.371

RRIRPRPPRLPRPRPRPPHRPRP
shrunken log2 fold change: 0.401

RRIRPRPPRLPRPRPRPPHYPRP
shrunken log2 fold change: 0.457

RRIRPRPPRLPRPRPRPPIFPRP
shrunken log2 fold change: -0.246

RRIRPRPPRLPRPRPRPPISPRP
shrunken log2 fold change: -0.0159

RRIRPRPPRLPRPRPRPPKSPRP
shrunken log2 fold change: 0.177

RRIRPRPPRLPRPRPRPPMGPRP
shrunken log2 fold change: 0.325

RRIRPRPPRLPRPRPRPPPIPRP
shrunken log2 fold change: 0.374

RRIRPRPPRLPRPRPRPPPTPRP
shrunken log2 fold change: 0.761

RRIRPRPPRLPRPRPRPPRAPRP
shrunken log2 fold change: 0.591

RRIRPRPPRLPRPRPRPPTGPRP
shrunken log2 fold change: 0.452

RRIRPRPPRLPRPRPRPPVTPRP
shrunken log2 fold change: 0.147

RRIRPRPPRLPRPRPRPPYSPRP
shrunken log2 fold change: -0.181

RRIRPRPPRLPRPRPRPQEMPRP
shrunken log2 fold change: 0.0716

RRIRPRPPRLPRPRPRPQFGPRP
shrunken log2 fold change: -0.0476

RRIRPRPPRLPRPRPRPQGKPRP
shrunken log2 fold change: -0.198

RRIRPRPPRLPRPRPRPQHIPRP
shrunken log2 fold change: -0.648

RRIRPRPPRLPRPRPRPQKAPRP
shrunken log2 fold change: 1.05

RRIRPRPPRLPRPRPRPQLAPRP
shrunken log2 fold change: 0.417

RRIRPRPPRLPRPRPRPQLYPRP
shrunken log2 fold change: -0.0926

RRIRPRPPRLPRPRPRPQMHPRP
shrunken log2 fold change: 0.143

RRIRPRPPRLPRPRPRPQMNPRP
shrunken log2 fold change: -0.267

RRIRPRPPRLPRPRPRPQMTPRP
shrunken log2 fold change: 2.25

RRIRPRPPRLPRPRPRPQPSPRP
shrunken log2 fold change: 0.641

RRIRPRPPRLPRPRPRPQQAPRP
shrunken log2 fold change: 0.106

RRIRPRPPRLPRPRPRPQQNPRP
shrunken log2 fold change: 0.076

RRIRPRPPRLPRPRPRPQRAPRP
shrunken log2 fold change: 0.381

RRIRPRPPRLPRPRPRPQRKPRP
shrunken log2 fold change: 0.113

RRIRPRPPRLPRPRPRPQRNPRP
shrunken log2 fold change: 0.147

RRIRPRPPRLPRPRPRPQRPPRP
shrunken log2 fold change: 0.272

RRIRPRPPRLPRPRPRPQRSPRP
shrunken log2 fold change: 0.265

RRIRPRPPRLPRPRPRPQRYPRP
shrunken log2 fold change: -0.0398

RRIRPRPPRLPRPRPRPQSFPRP
shrunken log2 fold change: 0.0475

RRIRPRPPRLPRPRPRPQTKPRP
shrunken log2 fold change: -0.0309

RRIRPRPPRLPRPRPRPQTPPRP
shrunken log2 fold change: 0.313

RRIRPRPPRLPRPRPRPQVKPRP
shrunken log2 fold change: 0.205

RRIRPRPPRLPRPRPRPQWKPRP
shrunken log2 fold change: 0.0366

RRIRPRPPRLPRPRPRPQWYPRP
shrunken log2 fold change: -0.257

RRIRPRPPRLPRPRPRPQYQPRP
shrunken log2 fold change: -0.263

RRIRPRPPRLPRPRPRPRANPRP
shrunken log2 fold change: 0.286

RRIRPRPPRLPRPRPRPRCNPRP
shrunken log2 fold change: -0.0415

RRIRPRPPRLPRPRPRPRDQPRP
shrunken log2 fold change: 0.0809

RRIRPRPPRLPRPRPRPREHPRP
shrunken log2 fold change: 0.121

RRIRPRPPRLPRPRPRPREMPRP
shrunken log2 fold change: 0.319

RRIRPRPPRLPRPRPRPREWPRP
shrunken log2 fold change: 0.151

RRIRPRPPRLPRPRPRPRFGPRP
shrunken log2 fold change: 0.348

RRIRPRPPRLPRPRPRPRFHPRP
shrunken log2 fold change: -0.108

RRIRPRPPRLPRPRPRPRFSPRP
shrunken log2 fold change: -0.0121

RRIRPRPPRLPRPRPRPRFWPRP
shrunken log2 fold change: 0.579

RRIRPRPPRLPRPRPRPRGAPRP
shrunken log2 fold change: 0.495

RRIRPRPPRLPRPRPRPRGSPRP
shrunken log2 fold change: 0.285

RRIRPRPPRLPRPRPRPRKCPRP
shrunken log2 fold change: 0.0115

RRIRPRPPRLPRPRPRPRKDPRP
shrunken log2 fold change: 0.173

RRIRPRPPRLPRPRPRPRKQPRP
shrunken log2 fold change: 0.0406

RRIRPRPPRLPRPRPRPRKVPRP
shrunken log2 fold change: 0.00959

RRIRPRPPRLPRPRPRPRMTPRP
shrunken log2 fold change: 0.288

RRIRPRPPRLPRPRPRPRNWPRP
shrunken log2 fold change: 0.195

RRIRPRPPRLPRPRPRPRPMPRP
shrunken log2 fold change: 0.513

RRIRPRPPRLPRPRPRPRQHPRP
shrunken log2 fold change: 0.182

RRIRPRPPRLPRPRPRPRRMPRP
shrunken log2 fold change: 0.297

RRIRPRPPRLPRPRPRPRSCPRP
shrunken log2 fold change: 0.395

RRIRPRPPRLPRPRPRPRSDPRP
shrunken log2 fold change: 0.179

RRIRPRPPRLPRPRPRPRTGPRP
shrunken log2 fold change: 1.03

RRIRPRPPRLPRPRPRPRVCPRP
shrunken log2 fold change: 0.298

RRIRPRPPRLPRPRPRPRWSPRP
shrunken log2 fold change: 0.108

RRIRPRPPRLPRPRPRPRYCPRP
shrunken log2 fold change: -0.191

RRIRPRPPRLPRPRPRPRYFPRP
shrunken log2 fold change: 0.0508

RRIRPRPPRLPRPRPRPSAGPRP
shrunken log2 fold change: 0.243

RRIRPRPPRLPRPRPRPSATPRP
shrunken log2 fold change: 0.195

RRIRPRPPRLPRPRPRPSCLPRP
shrunken log2 fold change: -0.317

RRIRPRPPRLPRPRPRPSCPPRP
shrunken log2 fold change: -0.123

RRIRPRPPRLPRPRPRPSCQPRP
shrunken log2 fold change: -0.733

RRIRPRPPRLPRPRPRPSDAPRP
shrunken log2 fold change: -0.0621

RRIRPRPPRLPRPRPRPSDEPRP
shrunken log2 fold change: -0.244

RRIRPRPPRLPRPRPRPSDTPRP
shrunken log2 fold change: -0.29

RRIRPRPPRLPRPRPRPSEWPRP
shrunken log2 fold change: 0.0522

RRIRPRPPRLPRPRPRPSGNPRP
shrunken log2 fold change: -0.273

RRIRPRPPRLPRPRPRPSHNPRP
shrunken log2 fold change: -0.645

RRIRPRPPRLPRPRPRPSHQPRP
shrunken log2 fold change: 0.189

RRIRPRPPRLPRPRPRPSHYPRP
shrunken log2 fold change: -0.479

RRIRPRPPRLPRPRPRPSIHPRP
shrunken log2 fold change: -0.974

RRIRPRPPRLPRPRPRPSISPRP
shrunken log2 fold change: -0.37

RRIRPRPPRLPRPRPRPSKKPRP
shrunken log2 fold change: -0.108

RRIRPRPPRLPRPRPRPSMDPRP
shrunken log2 fold change: -0.448

RRIRPRPPRLPRPRPRPSMNPRP
shrunken log2 fold change: -0.522
